Blank lines part the entries; values can stand above or below the molecule they belong to.
Key:
EphA4 (Homo sapiens) = EphA4 (Homo sapiens) (UniProt P54764); details: cited from earlier work
endogenous EphA4 [1] = molecular target: T1, endogenous EphA4 (human (endogenous in MCF7, BT-549, KPL4), UniProt P54764-1 20-986); assay: ELISA; saturation binding; EphA4 captured from BT-549 RIPA lysates on plates coated with EphA4 antibody; dilution series of recombinant hRNase 1 or ephrin-A5 in RIPA buffer overnight at 4 °C; biotin-conjugated detection antibodies; Kd estimated, Scatchard plot; details: one partner purified
T1 construct: EphA4 receptor tyrosine kinase, endogenous in human breast cancer cell lines; On cells in the co-IP (ligand added to cells, DSP fixed) and in the PLA; also called ephrin A4 receptor
T1 sequence (P54764 20-986): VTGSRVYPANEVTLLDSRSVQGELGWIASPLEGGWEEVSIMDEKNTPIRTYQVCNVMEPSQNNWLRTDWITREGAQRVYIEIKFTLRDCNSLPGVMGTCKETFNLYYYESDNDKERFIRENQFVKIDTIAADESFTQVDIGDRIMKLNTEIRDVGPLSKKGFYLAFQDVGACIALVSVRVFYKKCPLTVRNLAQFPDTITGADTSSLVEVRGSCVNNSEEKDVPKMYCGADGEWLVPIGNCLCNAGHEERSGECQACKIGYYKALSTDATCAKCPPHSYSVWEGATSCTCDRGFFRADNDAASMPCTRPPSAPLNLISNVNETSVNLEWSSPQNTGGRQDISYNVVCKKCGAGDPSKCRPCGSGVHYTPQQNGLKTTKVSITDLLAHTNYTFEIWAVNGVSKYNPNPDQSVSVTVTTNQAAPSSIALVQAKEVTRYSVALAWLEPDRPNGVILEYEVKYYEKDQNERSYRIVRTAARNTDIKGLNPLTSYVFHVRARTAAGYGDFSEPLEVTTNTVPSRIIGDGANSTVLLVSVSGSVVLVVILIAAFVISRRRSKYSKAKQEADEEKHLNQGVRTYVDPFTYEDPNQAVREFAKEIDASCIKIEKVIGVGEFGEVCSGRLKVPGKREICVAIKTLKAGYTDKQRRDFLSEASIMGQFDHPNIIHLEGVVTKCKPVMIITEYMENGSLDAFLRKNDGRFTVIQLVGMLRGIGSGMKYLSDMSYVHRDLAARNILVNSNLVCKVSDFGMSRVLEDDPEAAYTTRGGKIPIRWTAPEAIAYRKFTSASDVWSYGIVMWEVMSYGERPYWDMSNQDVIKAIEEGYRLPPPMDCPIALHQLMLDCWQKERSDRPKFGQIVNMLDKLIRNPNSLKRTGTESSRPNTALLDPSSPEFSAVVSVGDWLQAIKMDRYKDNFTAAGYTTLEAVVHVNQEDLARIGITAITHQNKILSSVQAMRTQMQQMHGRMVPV

endogenous EphA4 [2] = molecular target: T1, endogenous EphA4; assay: cell-based or functional assay

EphA4 (Homo sapiens), sequence (P54764 20-547): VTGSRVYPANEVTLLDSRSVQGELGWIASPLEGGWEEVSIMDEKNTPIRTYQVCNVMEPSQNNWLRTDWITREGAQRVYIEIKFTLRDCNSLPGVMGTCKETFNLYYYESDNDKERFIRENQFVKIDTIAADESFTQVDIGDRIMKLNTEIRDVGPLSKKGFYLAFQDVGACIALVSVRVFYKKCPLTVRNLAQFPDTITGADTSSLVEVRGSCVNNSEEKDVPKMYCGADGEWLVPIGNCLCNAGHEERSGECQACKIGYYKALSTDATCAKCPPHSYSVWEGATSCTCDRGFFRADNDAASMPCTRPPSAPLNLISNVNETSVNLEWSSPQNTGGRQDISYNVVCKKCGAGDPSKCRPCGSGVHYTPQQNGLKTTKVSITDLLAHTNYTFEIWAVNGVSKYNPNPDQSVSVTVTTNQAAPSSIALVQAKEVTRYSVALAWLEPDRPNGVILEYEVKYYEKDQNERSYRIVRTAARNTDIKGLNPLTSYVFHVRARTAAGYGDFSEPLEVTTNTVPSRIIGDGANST

Molecule: Ephrin-A5 (from UniProt P52803)
Kd (EphA4 (Homo sapiens)): < 0.01 µM

Kd (endogenous EphA4 [1]): 0.0924 µM | EC50 of EphA4 phosphorylation (pY779-EphA4, WB) in BT-549 cells treated with hRNase 1 at various concentrations for 30 min (endogenous EphA4 [2]): 9.85 nM
B1: recombinant hRNase 1 protein purified from HEK293 cells (enzyme, human, UniProt P07998 29-156, looked up)
chain: KESRAKKFQRQHMDSDSSPSSSSTYCNQMMRRRNMTQGRCKPVNTFVHEPLVDVQNVCFQEKVTCKNGQGNCYKSNSSMHITDCRLTNGSRYPNCAYRTSPKERHIIVACEGSPYVPVHFDASVEDST
modifications: N-linked glycosylation, heterogeneous (glycosylated and non-glycosylated bands; sites reported at Asn-34, Asn-76, Asn-88)
notes: human ribonuclease 1 (hRNase 1), bought recombinant protein; The ELISA methods say only 'recombinant hRNase 1'; also called human ribonuclease 1; source: bought: Sino Biological Inc. #13468-H08H, purified from HEK293 cells

Kd (endogenous EphA4 [1]): 0.0056 µM
B2: recombinant ephrin-A5 (ligand, UniProt P52803 21-203, looked up)
chain: QDPGSKAVADRYAVYWNSSNPRFQRGDYHIDVCINDYLDVFCPHYEDSVPEDKTERYVLYMVNFDGYSACDHTSKGFKRWECNRPHSPNGPLKFSEKFQLFTPFSLGFEFRPGREYFYISSAIPDNGRRSCLKLKVFVRPTNSCMKTIGVHDRVFDVNDKVENSLEPADDTVHESAEPSRGEN
notes: ephrin-A5, recombinant; 5.6 nM is printed as equivalent to 0.15 μg/ml, which implies about 27 kDa

Reference: paper PMC8119676, “Human ribonuclease 1 serves as a secretory ligand of ephrin A4 receptor and induces breast tumor initiation” (Nature Communications, 2021)
